Assay results reported in US20250277048A1 (Regeneron, published 2025).

B1: REGN17544 (antibody, V domains shown)
VH: EVQLVESGGGLVQPGGSLRLSCAASGFTFGSYGMAWVRQAPGKGLEWVSAISGSGDYTNYADSVKRRFTISRDNSKNTLYLQMSSLRAEDTAVYYCAKEKTGTTGYLYSGMDVWGQGTTVTVSS
VL: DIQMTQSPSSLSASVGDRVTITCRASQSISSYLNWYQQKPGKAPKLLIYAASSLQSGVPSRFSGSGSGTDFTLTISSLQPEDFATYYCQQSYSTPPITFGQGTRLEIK
notes: bivalent mAb with two Fab arms identical to the 21520 arm; also called Parental CD40 (21520)
B2: REGN11209 (comparator anti-CD40 antibody) (antibody, human IgG1, kappa, N297A, V domains shown)
VH: QVQLVESGGGVVQPGRSLRLSCAASGFTFSSYGMHWVRQAPGKGLEWVAVISYEESNRYHADSVKGRFTISRDNSKITLYLQMNSLRTEDTAVYYCARDGGIAAPGPDYWGQGTLVTVSS
VL: DIVMTQSPLSLTVTPGEPASISCRSSQSLLYSNGYNYLDWYLQKPGQSPQVLISLGSNRASGVPDRFSGSGSGTDFTLKISRVEAEDVGVYYCMQARQTPFTFGPGTKVDIRR
B3: REGN20484 (bispecific antibody, human IgG4 S228P, kappa)
heavy 1: EVQLVESGGGLVQPGGSLRLSCAASGFTFGSYGMAWVRQAPGKGLEWVSAISGSGDYTNYADSVKRRFTISRDNSKNTLYLQMSSLRAEDTAVYYCAKEKTGTTGYLYSGMDVWGQGTTVTVSSASTKGPSVFPLAPCSRSTSESTAALGCLVKDYFPEPVTVSWNSGALTSGVHTFPAVLQSSGLYSLSSVVTVPSSSLGTKTYTCNVDHKPSNTKVDKRVESKYGPPCPPCPAPGGGGPSVFLFPPKPKDTLMISRTPEVTCVVVDVSQEDPEVQFNWYVDGVEVHNAKTKPREEQFNSTYRVVSVLTVLHQDWLNGKEYKCKVSNKGLPSSIEKTISKAKGQPREPQVYTLPPSQEEMTKNQVSLTCLVKGFYPSDIAVEWESNGQPENNYKTTPPVLDSDGSFFLYSRLTVDKSRWQEGNVFSCSVMHEALHNHYTQKSLSLSLGK
heavy 2: EVQLVESGGGLVQPGGSLRLSCAASGFTFSSYAMNWVRQAPGKGLEWVSIISGTIGKTYYADSVKGRFTISRDNSKNTLYLQMNSLRGEDTAVYYCAKDTERDITGSPFDYWGQGTLVTVSSASTKGPSVFPLAPCSRSTSESTAALGCLVKDYFPEPVTVSWNSGALTSGVHTFPAVLQSSGLYSLSSVVTVPSSSLGTKTYTCNVDHKPSNTKVDKRVESKYGPPCPPCPAPGGGGPSVFLFPPKPKDTLMISRTPEVTCVVVDVSQEDPEVQFNWYVDGVEVHNAKTKPREEQFNSTYRVVSVLTVLHQDWLNGKEYKCKVSNKGLPSSIEKTISKAKGQPREPQVYTLPPSQEEMTKNQVSLTCLVKGFYPSDIAVEWESNGQPENNYKTTPPVLDSDGSFFLYSRLTVDKSRWQEGNVFSCSVMHEALHNRFTQKSLSLSPGK
light: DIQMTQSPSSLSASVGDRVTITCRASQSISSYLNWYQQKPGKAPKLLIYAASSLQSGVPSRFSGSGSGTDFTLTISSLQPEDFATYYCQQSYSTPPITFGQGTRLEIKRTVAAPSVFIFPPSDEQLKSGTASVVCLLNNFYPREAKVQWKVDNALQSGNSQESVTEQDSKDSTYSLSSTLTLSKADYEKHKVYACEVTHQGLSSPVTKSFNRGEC
B4: REGN17288 (antibody, V domains shown)
VH: QLQLQESGPGLVRPSETLSLTCSVSGASMNTNNYYWGWIRQPPGKGLEWIGSGYYNGNTYYNPSLKSRVTISVDTSKNQFSLKLNSVTAADTAVYYCARQTPPRIIGSPNIWGQGTMVTVSS
VL: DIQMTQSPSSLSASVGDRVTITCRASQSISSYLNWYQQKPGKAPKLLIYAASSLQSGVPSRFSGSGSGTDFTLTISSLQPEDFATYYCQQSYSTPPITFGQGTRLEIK
notes: also called Parental CD40 (21519)
B5: REGN17289 (antibody, V domains shown)
VH: EVQLVESGGGLVQPGGSLRLSCAASGFTFSSYAMNWVRQAPGKGLEWVSIISGTIGKTYYADSVKGRFTISRDNSKNTLYLQMNSLRGEDTAVYYCAKDTERDITGSPFDYWGQGTLVTVSS
VL: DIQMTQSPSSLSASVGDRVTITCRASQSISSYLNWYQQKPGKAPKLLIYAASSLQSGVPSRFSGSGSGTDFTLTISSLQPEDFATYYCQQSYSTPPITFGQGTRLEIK
notes: bivalent mAb with two Fab arms identical to the 30027 arm; also called Parental CD40 (30027)

Key:
[1] = molecular target: T1, human CD40 (hCD40) expressed on cells (human, UniProt P25942 21-277); assay: cell-based or functional assay
T1 sequence (P25942 21-277): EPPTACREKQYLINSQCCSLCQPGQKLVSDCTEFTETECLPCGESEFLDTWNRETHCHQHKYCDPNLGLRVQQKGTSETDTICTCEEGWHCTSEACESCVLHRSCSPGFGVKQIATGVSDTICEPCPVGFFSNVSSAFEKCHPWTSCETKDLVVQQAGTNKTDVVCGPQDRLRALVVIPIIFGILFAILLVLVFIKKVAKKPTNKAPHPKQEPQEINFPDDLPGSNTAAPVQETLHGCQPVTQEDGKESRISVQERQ

[2] = molecular target: T1, human CD40 (hCD40) expressed on cells; assay: cell-based or functional assay; remark: listed apart in the source
[3] = molecular target: T1, human CD40 (hCD40) expressed on cells; assay: cell-based or functional assay; remark: listed apart in the source
[4] = molecular target: T1, human CD40 (hCD40) expressed on cells; assay: flow cytometry, Ramos 2G6.4C10 cells
Experimental: (§1) Cells were washed with 2% FBS (w/v) in 1×PBS (flow cytometry staining buffer) by centrifugation with benchtop Centrifuge 5810R (Eppendorf®, Hamburg, Germany). Cells were incubated for 30 minutes at 4° C. with serial dilutions of following antibodies ranging from 1.7 pM to 100 nM in flow cytometry staining buffer (1) anti-CD40×CD40 bispecific antibodies, or (2) parental anti-CD40 antibodies (bivalent antibodies comprising 2 fragment antigen-binding [Fab] arms identical to one of the two anti-CD40 Fab of bispecific anti-CD40×CD40 antibodies), or (3) anti-CD40×Irrelevant antibodies (bivalent antibodies that incorporate one Fab arm identical to one of anti-CD40 Fab of anti-CD40×CD40 antibodies and another Fab arm specific to an irrelevant antigen, i.e. birch pollen main allergen Bet v1), or (4) human IgG4 isotype control antibodies with Fc mutation. After washing, cell bound antibodies were detected with 2.5 μg/ml Allophycocyanin (APC)-conjugated goat anti-human IgG antibody specific for the Fcγ fragment (Jackson Immunoresearch, West Grove, PA) for 30 minutes at 4° C. Cells were washed and subsequently fixed with 50% solution of Cytofix™ Fixation Buffer (BD, Franklin Lakes, NJ) in flow cytometry staining buffer for 20 minutes at room temperature. Cells were washed and resuspended in flow cytometry staining buffer and stored at 4° C. for downstream flow cytometry analysis.
(§2) Acquisition of fluorescence signals were recorded on the ZE5 Cell Analyzer (Bio-Rad, Hercules, CA) according to the manufacturer's recommended procedure and flow cytometry data analysis was performed using the open-source R packages flowCore, flowStats, flowDensity, ggCyto, and flowAI. Multiplexed samples were deconvoluted and individual cell populations were identified based on their unique CellTrace™ fluorescence signature. APC Median Fluorescence intensity (MFI) was recorded to indicate the binding intensity of each antibody over a range of concentrations. Antibodies with MFI greater than 1500 at the highest tested concentration (100 nM) were classified as specific binders. In addition, direct binding signals (APC MFI) were analyzed as a function of the antibody concentration and data were fitted with a sigmoidal (four-parameter logistic) dose-response model using GraphPad Prism™ software.

[5] = molecular target: T1, human CD40 (hCD40) expressed on cells; assay: flow cytometry, HEK293/D9/hCD40 cells
Experimental: as §1, §2

[6] = molecular target: T2, Macaca fascicularis CD40 (mfCD40) expressed on HEK293/D9/mfCD40 cells (Macaca fascicularis, UniProt G7PG38 21-278); assay: flow cytometry, HEK293/D9/mfCD40 cells
T2 construct: whole, on cells; also called monkey CD40
Experimental: as §1, §2

[7] = molecular target: T3, human CD40 extracellular domain expressed with a C-terminal myc-myc-hexahistidine tag (human); assay: ELISA blocking of 40 nM hCD40-mmH binding to 9His-hCD40L
T3 construct: also called hCD40-MMH; hCD40-mmH
T3 sequence (chain, as listed by the source limits assumed): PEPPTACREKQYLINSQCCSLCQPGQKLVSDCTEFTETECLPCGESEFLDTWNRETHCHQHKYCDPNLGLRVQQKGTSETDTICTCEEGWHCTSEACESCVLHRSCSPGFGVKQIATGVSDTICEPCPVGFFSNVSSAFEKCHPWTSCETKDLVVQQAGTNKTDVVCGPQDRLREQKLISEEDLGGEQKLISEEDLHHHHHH
From the text: An ELISA-based blocking assay was developed to determine the ability of C40×CD40 bispecific antibodies to block the binding of the hCD40 monomer to plate-coated hCD40L. The recombinant human CD40-mmH protein (hCD40-MMH; REGN3094; SEQ ID NO: 53) used in the experiments comprises a portion of the human CD40 extracellular domain (amino acids P20-R193) fused to 2×Myc peptide and 6×histadine (SEQ ID NO: 1110) at the C-terminus of human CD40, and the human CD40L (accession #NM_000074.2) with amino acids E108-L261 of the extracellular domain with 9×His-2×(SGGG)-IGER at the N-terminus (9His-hCD40L) was commercially obtained from Biolegend.
In the blocking assay, 9His-hCD40L was passively absorbed at a concentration of 5 μg/mL in PBS on a 96-well microtiter plate overnight at 4° C. […] In a separate 96-well microtiter plate, a fixed amount of 40 nM hCD40-mmH was pre-mixed with one of the following antibodies, at concentrations ranging from 977 pM to 1 μM in PBS+0.5% BSA: (1) CD40×CD40 bispecific antibodies (REGN16431, REGN16432, REGN16634, and REGN16335); (2) parental CD40 mAbs (bivalent antibodies comprising 2 fragment antigen-binding [Fab] arms identical to one of anti-CD40 Fab of CD40×CD40 antibodies); (3) CD40×Irrelevant antibodies (bivalent antibodies that incorporate one Fab arm identical to one of anti-CD40 Fab of CD40×CD40 antibodies and another Fab arm specific to an irrelevant antigen); and (4) human IgG4 with Fc mutation isotype control antibodies (REGN7540 and REGN4513). The fixed concentration of hCD40-mmH was selected to be near the concentration (EC₅₀ value) that generated 50% of the maximal binding to the plate-adhered 9His-hCD40L. After one-hour incubation, the antibody-antigen complexes were transferred to the microtiter plate coated with 9His-hCD40L. After one hour incubation at room temperature, the plates were washed, and plate-bound hCD40-mmH protein was detected with horseradish peroxidase (HRP) conjugated goat anti-c-Myc antibody. The plates were then developed using TMB substrate solution (BD Biosciences) according to the manufacturer's recommended procedure and the absorbance at 450 nm (OD₄₅₀) was measured on a SpectraMax i3×plate reader.

[8] = molecular target: T1, human CD40 (hCD40) expressed on cells; assay: cell-based or functional assay; remark: listed apart in the source
[9] = molecular target: T1, human CD40 (hCD40) expressed on cells; assay: cell-based or functional assay; remark: listed apart in the source
[10] = molecular target: T1, human CD40 (hCD40) expressed on cells; assay: cell-based or functional assay; remark: listed apart in the source
[11] = molecular target: T1, human CD40 (hCD40) expressed on cells; assay: cell-based or functional assay; remark: listed apart in the source
[12] = molecular target: T1, human CD40 (hCD40) expressed on cells; assay: cell-based or functional assay; remark: listed apart in the source
[13] = molecular target: T1, human CD40 (hCD40) expressed on cells; assay: cell-based or functional assay; remark: listed apart in the source

Binder | IC50, 500 pM hCD40L, Ramos NFkB-luc [1] [M] | Max % activation, no ligand, Ramos NFkB-luc [1] [%] | Max % inhibition, 500 pM hCD40L, Ramos NFkB-luc [1] [%] | IC50, 900 pM hCD40L, Raji NFkB-luc [2] [M] | Max % activation, no ligand, Raji NFkB-luc [2] [%] | Max % inhibition, 900 pM hCD40L, Raji NFkB-luc [2] [%] | IC50, 10 nM hCD40L, THP-1 NFkB-luc [3] [nM] | Max % activation, no ligand, THP-1 NFkB-luc [3] [%] | Max % inhibition, 10 nM hCD40L, THP-1 NFkB-luc [3] [%] | EC50 [4] [nM] | MFI at 100 nM [4] [MFI] | EC50 [5] [nM] | MFI at 100 nM [5] [MFI] | EC50 [6] [nM] | MFI at 100 nM [6] [MFI] | % Blocking at 1 uM mAb [7] [%] | IC50 [7] [nM] | % max blockade relative to no mAb, IL-6, assay #2 donor 1 [11] [%] | % max blockade relative to no mAb, IL-6, assay #2 donor 2 [11] [%] | % max blockade relative to no mAb, IL-10, assay #2 donor 1 [12] [%] | also measured
B1 | 1.89e-10 | 10 | 77 | 1.35e-10 | 11 | 81 | 1.13 | 4 | 96 | 0.87 | 2440 | 0.98 | 20500 | 4.3 | 23200 | 91 | 71 |  |  |  | 
B2 |  |  |  |  |  |  |  |  |  |  |  |  |  |  |  |  |  | 88.6 | 88.3 | 88.1 | % max blockade relative to no mAb, IL-6, donor 1 [8]: 84.2%; % max blockade relative to no mAb, IL-6, donor 2 [8]: 91.3%; % max blockade relative to no mAb, IL-6, donor 3 [8]: 91.3%; % max blockade relative to no mAb, IL-10, donor 1 [9]: 84.1%; % max blockade relative to no mAb, IL-10, donor 2 [9]: 91.7%; % max blockade relative to no mAb, IL-10, donor 3 [9]: 91.4%; % max blockade relative to no mAb, TNFa, donor 1 [10]: 53.9%; % max blockade relative to no mAb, TNFa, donor 2 [10]: 71.4%; % max blockade relative to no mAb, TNFa, donor 3 [10]: 73.9%; % max blockade relative to no mAb, IL-10, assay #2 donor 2 [12]: 90.5%; % max blockade relative to no mAb, TNFa, assay #2 donor 1 [13]: 62%; % max blockade relative to no mAb, TNFa, assay #2 donor 2 [13]: 50.6%
B3 |  |  |  |  |  |  |  |  |  |  |  |  |  |  |  |  |  | 89 | 88.1 | 87.1 | % max blockade relative to no mAb, IL-10, assay #2 donor 2 [12]: 90.9%; % max blockade relative to no mAb, TNFa, assay #2 donor 1 [13]: 61.9%; % max blockade relative to no mAb, TNFa, assay #2 donor 2 [13]: 52.3%
B4 | 4.07e-11 | 6 | 88 | 4.28e-11 | 14 | 90 | 0.334 | 0 | 98 | 1.3 | 2420 | 1.2 | 20300 | 9.2 | 11800 | 94 | 52 |  |  |  | 
B5 |  | 4 | -133 | 2.72e-11 | 10 | 55 |  | 1 | -92 | 0.47 | 2660 | 0.76 | 20500 | 1.1 | 32900 | 10 |  |  |  |  | EC50 (potentiation), 500 pM hCD40L, Ramos NFkB-luc [1]: 7.51e-12 M; EC50 (potentiation), 10 nM hCD40L, THP-1 NFkB-luc [3]: 0.016 nM
